Key:
[1] = target: mouse NKG2A on cells (mouse); experiment: binding to mNKG2A-expressing CHO cells
[2] = target: mouse NKG2A on cells (mouse); experiment: blockade of Qa-1b tetramer binding to mNKG2A-expressing CHO cells
[3] = target: cynomolgus monkey NKG2C on CHO cells (cynomolgus monkey); experiment: cell binding on CHO-cyno NKG2C cells
[4] = target: human NKG2A-CD94 heterodimer (extracellular domains) (human) (UniProt Q13241); experiment: SPR Biacore T200, 37 °C, antibody captured by anti-human Fc on C1 chip, hNKG2A-hCD94 as analyte
Sequence of human NKG2A-CD94 heterodimer (extracellular domains) (human) (chain, as listed by the source, chain 1 of 2): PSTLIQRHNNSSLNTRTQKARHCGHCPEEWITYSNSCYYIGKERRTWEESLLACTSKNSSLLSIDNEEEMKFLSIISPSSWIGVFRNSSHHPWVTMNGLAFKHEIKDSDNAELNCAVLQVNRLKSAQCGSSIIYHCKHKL
Sequence of human NKG2A-CD94 heterodimer (extracellular domains) (human) (Q13241 32-179, chain 2 of 2): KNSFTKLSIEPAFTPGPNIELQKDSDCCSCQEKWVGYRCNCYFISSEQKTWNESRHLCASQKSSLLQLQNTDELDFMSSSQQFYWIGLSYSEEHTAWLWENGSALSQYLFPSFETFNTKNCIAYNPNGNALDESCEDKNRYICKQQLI

B1: NKG2A.3 antibody (anti-mNKG2A surrogate, mIgG1-D265A) (antibody, V domains shown)
VH: QVQLKQSGAELVKPGASVKISCKTSGYTFTDGYMHWVEQNPGQGLEWIGRIDPDSGYTMYNQKFQDKATLTRDKSSSTVYMELRSLTSEDSAVYYCAINYGEYWYFDFWGQGTQVTVSS
VL: DIVMTQSPSSLAVSAGDKVTINCKSSQTLFSGRYNYLAWYQQKTGQAPKLLIYYTSTRHTGVPGRFIGSGSGTDFTLTINNLQTEDLGNYYCQQHYSTPYTFGAGTNLEIRR
EC50 [1]: 0.3 nM
IC50 [2]: 0.4 nM

B2: NKG2A.9 antibody (antibody, human IgG1, kappa, V domains shown)
VH: EVQLVESGGGLVKPGGSLRLSCAASGFTFSSHSMNWVRQAPGKGLEWVSAISSSSSYIYYADSVKGRFTISRDNAKNSLYLQMNSLRAEDTAVYYCAREEWGLPFDYWGQGTLVTVSS
VL: AIQLTQSPSSLSASVGDRVTITCRASQGISSALAWYQQKPGKAPKLLIYDASSLKSGVPSRFSGSGSGTDFTLTISSLQPEDFATYYCQQFNSYPLTFGQGTRLEIKR
EC50 [3]: 0.8 nM

B3: Z270 (antibody, from another filing, V domains shown)
VH: QVQLQQPGAELVRPGASVKLSCKASGYTFTSYWMNWVKQRPEQGLQWIGRIDPYDSETHYSQKFKDKAILTVDKSSSTAYMRLSSLTSEDSAVYYCARGGYDFDVGTLYWFFDVWGAGTTVTVS
VL: DIQMTQSPASLSASVGETVTITCRASENIYSYLAWYQQKQGKSPQFLVYNAKTLAEGVPSRFSGSGSGTQFSLKINSLQPEDFGSYYCQHHYGTPRTFGGGTKLEIK
Half-life of Antibody/Analyte Complex [4]: 3 to 4 s
Kd [4]: 25 nM
koff [4]: 0.2 s⁻¹
kon [4]: 8e+06 M⁻¹ s⁻¹

— patent US20250101100A1
